Some results are limits rather than exact numbers.

Experiment [1] has as its target HLA-A*01:01. As to the kind of experiment: IEDB peptide-MHC binding, purified MHC/direct/fluorescence; filed as Kd, often an IC50 or EC50 that approximates it; ≥ and ≤ were set here for values at or beyond the usual limits of such assays.
The target of experiment [2] is HLA-A*02:01. The description is as above.
The target of experiment [3] is HLA-A*11:01. Described as above.
The target of experiment [4] is HLA-A*31:01. Described as above.
The next experiment deals with HLA-A*69:01. The description is as above. As to conditions: source organism: Mycobacterium tuberculosis.
The target in experiment [5] is HLA-B*08:01. The description is as above.
The target of another experiment is HLA-B*08:02. Described as above.
In a further experiment the target is HLA-B*08:03. Described as above.
For a further experiment, the target named is HLA-B*15:01. The experiment is described as above.
A further experiment deals with HLA-B*15:17. Described as above.
Experiment [6] deals with HLA-B*18:01. The description is as above.
A further experiment addresses HLA-B*27:05. The experiment is described as above.
A further experiment addresses HLA-B*40:01. The experiment is described as above.
Another experiment has as its target HLA-B*46:01. The description is as above.
For another experiment, the target named is HLA-B*48:01. The experiment is described as above.
The target in a further experiment is HLA-B*57:01. The description is as above.
Experiment [7] concerns the target HLA-B*58:01. The description is as above.
Another experiment has as its target HLA-A*02:06. As to the kind of experiment: IEDB peptide-MHC binding, purified MHC/competitive/fluorescence; filed as Kd, often an IC50 or EC50 that approximates it; ≥ and ≤ were set here for values at or beyond the usual limits of such assays. Particulars: source organism: Mycobacterium tuberculosis variant bovis BCG str. Pasteur 1173P2.
The target of experiment [8] is HLA-A*26:01. Described as above. As to conditions: source organism: Mycobacterium tuberculosis variant bovis BCG str. Pasteur 1173P2.
The next experiment has as its target HLA-A*26:02. The description is as above. Particulars: source organism: Mycobacterium tuberculosis variant bovis BCG str. Pasteur 1173P2.
Experiment [9] deals with HLA-A*26:03. Described as above. As to conditions: source organism: Mycobacterium tuberculosis variant bovis BCG str. Pasteur 1173P2.
Experiment [10] deals with HLA-A*68:02. The description is as above. As to conditions: source organism: Mycobacterium tuberculosis variant bovis BCG str. Pasteur 1173P2.
Experiment [11] has as its target HLA-B*07:02. The experiment is described as above. As to conditions: source organism: Mycobacterium tuberculosis variant bovis BCG str. Pasteur 1173P2.
Experiment [12] concerns the target HLA-A*03:01. As to the kind of experiment: IEDB peptide-MHC binding, purified MHC/direct/fluorescence; filed as Kd, often an IC50 or EC50 that approximates it; ≥ and ≤ were set here for values at or beyond the usual limits of such assays. Particulars: source organism: Yersinia pestis.
For experiment [13], the target named is HLA-A*26:01. Described as above. As to conditions: source organism: Yersinia enterocolitica subsp. enterocolitica 8081.
Experiment [14] deals with HLA-A*26:03. The experiment is described as above. As to conditions: source organism: Yersinia enterocolitica subsp. enterocolitica 8081.
Experiment [15] deals with HLA-A*68:02. The description is as above. As to conditions: source organism: Yersinia pestis.
For experiment [16], the target named is HLA-B*07:02. Described as above. As to conditions: source organism: Yersinia pestis.
Experiment [17] concerns the target HLA-A*01:01. As to the kind of experiment: IEDB peptide-MHC binding, purified MHC/competitive/fluorescence; ≥ and ≤ were set here for values at or beyond the usual limits of such assays. As to conditions: source organism: Homo sapiens.
Experiment [18] deals with HLA-A*02:01. Described as above. Particulars: source organism: Homo sapiens.
In experiment [19] the target is HLA-A*03:01. The experiment is described as above. Particulars: source organism: Homo sapiens.
Experiment [20] has as its target HLA-A*11:01. The description is as above. Particulars: source organism: Homo sapiens.
The target in another experiment is HLA-A*24:02. The description is as above. Particulars: source organism: Homo sapiens.
A further experiment deals with HLA-A*25:01. The experiment is described as above. As to conditions: source organism: Homo sapiens.
For another experiment, the target named is HLA-A*29:02. Described as above. Particulars: source organism: Homo sapiens.
The target in experiment [21] is HLA-A*31:01. The description is as above. Particulars: source organism: Homo sapiens.
Experiment [22] concerns the target HLA-A*68:02. The description is as above. Particulars: source organism: Homo sapiens.
For experiment [23], the target named is HLA-B*07:02. Described as above. Particulars: source organism: Homo sapiens.
Experiment [24] deals with HLA-B*08:01. The experiment is described as above. Particulars: source organism: Homo sapiens.
For the next experiment, the target named is HLA-B*14:02. The experiment is described as above. Particulars: source organism: Homo sapiens.
Experiment [25] concerns the target HLA-B*18:01. Described as above. As to conditions: source organism: Homo sapiens.
Another experiment concerns the target HLA-B*35:01. The description is as above. Particulars: source organism: Homo sapiens.
A further experiment addresses HLA-B*37:01. Described as above. As to conditions: source organism: Homo sapiens.
The next experiment concerns the target HLA-B*40:02. The experiment is described as above. Particulars: source organism: Homo sapiens.
A further experiment addresses HLA-B*44:03. The experiment is described as above. As to conditions: source organism: Homo sapiens.
In the next experiment the target is HLA-B*51:01. Described as above. As to conditions: source organism: Homo sapiens.
Another experiment deals with HLA-B*53:01. The experiment is described as above. Particulars: source organism: Homo sapiens.
The target of experiment [26] is HLA-B*58:01. The experiment is described as above. As to conditions: source organism: Homo sapiens.
A further experiment addresses HLA-C*14:02. As to the kind of experiment: IEDB peptide-MHC binding, purified MHC/direct/fluorescence; filed as Kd, often an IC50 or EC50 that approximates it; ≥ and ≤ were set here for values at or beyond the usual limits of such assays. Particulars: source organism: Homo sapiens.
Setting [27] is: source organism: Mycobacterium tuberculosis.
The mark [28] stands for this setting: source organism: Mycobacterium tuberculosis str. Haarlem.
[29] abbreviates: source organism: Yersinia pestis.
Setting [30] is: source organism: Yersinia enterocolitica subsp. enterocolitica 8081.

Turning to AVFDSFVER, the Kd (usually the equilibrium constant for the complex coming apart) with HLA-A*01:01 [1] (setting [27]) was at least 20 µM; with HLA-A*02:01 [2] (setting [27]), at least 20 µM; with HLA-A*11:01 [3] (setting [27]), 0.009 µM; with HLA-A*31:01 [4] (setting [27]), 0.004 µM; with HLA-A*69:01, at least 20 µM; with HLA-B*08:01 [5] (setting [28]), at least 20 µM. Further, the Kd with HLA-B*08:02 (setting [28]), in the experiment with HLA-B*08:03 (setting [28]), with HLA-B*15:01 (setting [27]), in the experiment with HLA-B*15:17 (setting [27]), with HLA-B*18:01 [6] (setting [27]) and with HLA-B*27:05 (setting [27]) was at least 20 µM each time. Moreover, the Kd with HLA-B*40:01 (setting [27]) was at least 20 µM; in the experiment with HLA-B*46:01 (setting [27]), at least 20 µM; with HLA-B*48:01 (setting [27]) it was at least 20 µM; with HLA-B*57:01 (setting [27]), at least 20 µM; in the experiment with HLA-B*58:01 [7] (setting [27]) it was at least 20 µM; with HLA-A*02:06, 0.0023 µM. In addition, the Kd in the experiment with HLA-A*26:01 [8], in the experiment with HLA-A*26:02, with HLA-A*26:03 [9], in the experiment with HLA-A*68:02 [10] and with HLA-B*07:02 [11] was at least 20 µM throughout.

For the sequence SDDQLRLLK, the Kd was at least 20 µM with HLA-A*01:01 [1] (setting [29]); at least 20 µM with HLA-A*02:01 [2] (setting [29]); at least 20 µM with HLA-A*03:01 [12]; 0.407 µM in the experiment with HLA-A*11:01 [3] (setting [29]); at least 20 µM with HLA-A*26:01 [13]; at least 20 µM in the experiment with HLA-A*26:03 [14]. The Kd with HLA-A*31:01 [4] (setting [29]), with HLA-A*68:02 [15], with HLA-B*07:02 [16], in the experiment with HLA-B*08:01 [5] (setting [30]), with HLA-B*08:02 (setting [30]) and with HLA-B*08:03 (setting [30]) was at least 20 µM in each case. Also, the Kd with HLA-B*15:01 (setting [29]), with HLA-B*15:17 (setting [29]), with HLA-B*18:01 [6] (setting [29]), with HLA-B*27:05 (setting [29]), in the experiment with HLA-B*40:01 (setting [29]) and in the experiment with HLA-B*46:01 (setting [29]) was at least 20 µM in each case. Besides, the Kd with HLA-B*48:01 (setting [29]), with HLA-B*57:01 (setting [29]) and with HLA-B*58:01 [7] (setting [29]) was at least 20 µM in each case.

In the case of SYMMDDLELI, the IC50 (in general, the concentration needed to halve the response being measured) is at least 20 µM with HLA-A*01:01 [17]; 0.131 µM with HLA-A*02:01 [18]; at least 20 µM in the experiment with HLA-A*03:01 [19]; at least 20 µM with HLA-A*11:01 [20]; 0.0113 µM in the experiment with HLA-A*24:02; at least 20 µM in the experiment with HLA-A*25:01. In addition, the IC50 was 0.824 µM in the experiment with HLA-A*29:02; at least 20 µM with HLA-A*31:01 [21]; 0.777 µM in the experiment with HLA-A*68:02 [22]; at least 20 µM with HLA-B*07:02 [23]; at least 20 µM with HLA-B*08:01 [24]; at least 20 µM with HLA-B*14:02. Moreover, the IC50 with HLA-B*18:01 [25], with HLA-B*35:01, with HLA-B*37:01, in the experiment with HLA-B*40:02, with HLA-B*44:03 and with HLA-B*51:01 was at least 20 µM each time. Also, the IC50 in the experiment with HLA-B*53:01 and with HLA-B*58:01 [26] was at least 20 µM throughout. Besides, the Kd with HLA-C*14:02 was 0.575 µM.

These data come from the Immune Epitope Database (IEDB).
